Data from article PMC3853120 (Science (New York, N.Y.), 2013).
Where two headings read alike, the source gives them in different places.

Tests used:
[1] = target: T1, oligomerized biotinylated synthetic human Aβ1-42 peptide (human, UniProt P05067 672-713, biotinylated (position not given))
[2] = target: T1, oligomerized biotinylated synthetic …; remark: listed apart in the source

Kd [1]: 206 ± 65 nM
Kd [2]: 250 nM
B1: human LilrB2 (leukocyte immunoglobulin-like receptor B2) expressed on HEK293 cells (receptor, UniProt Q8N423 22-597, looked up)
chain: QTGTIPKPTLWAEPDSVITQGSPVTLSCQGSLEAQEYRLYREKKSASWITRIRPELVKNGQFHIPSITWEHTGRYGCQYYSRARWSELSDPLVLVMTGAYPKPTLSAQPSPVVTSGGRVTLQCESQVAFGGFILCKEGEDEHPQCLNSQPHARGSSRAIFSVGPVSPNRRWSHRCYGYDLNSPYVWSSPSDLLELLVPGVSKKPSLSVQPGPVMAPGESLTLQCVSDVGYDRFVLYKEGERDLRQLPGRQPQAGLSQANFTLGPVSRSYGGQYRCYGAHNLSSECSAPSDPLDILITGQIRGTPFISVQPGPTVASGENVTLLCQSWRQFHTFLLTKAGAADAPLRLRSIHEYPKYQAEFPMSPVTSAHAGTYRCYGSLNSDPYLLSHPSEPLELVVSGPSMGSSPPPTGPISTPGPEDQPLTPTGSDPQSGLGRHLGVVIGILVAVVLLLLLLLLLFLILRHRRQGKHWTSTQRKADFQHPAGAVGPEPTDRGLQWRSSPAADAQEENLYAAVKDTQPEDGVEMDTRAAASEAPQDVTYAQLHSLTLRRKATEPPPSQEREPPAEPSIYATLAIH
